{"source": "the nanobody polyreactivity screen of Harvey et al. (2022)"}
{"test": "yeast display, Sf9 membrane polyspecificity reagent, FACS + sequencing; frameworks hold sequencing errors", "method_in_brief": "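In a synthetic yeast display library (Saccharomyces cerevisiae BJ5465), nanobody expression was induced with galactose for 36–48 hours. FACS gates were set low and high (top ~1%) using anti-HA fluorescence for expression and streptavidin fluorescence for binding of the Sf9 membrane reagent. Each polyreactivity label is drawn from the gate of origin.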"}
{"sequence": "QVQLVESGGGLVQAGGSLRLSCAASGSIFQIYAMGWYRQAPGKERELVATISSGGRTTYADSVKGRFTISRDNAKNSVYLQMNSLKPEDTAVYYCAAKLEWLSHYYYWGQGTQVTVSS", "polyreactivity (PSR sort gate)": "low polyreactivity"}
{"sequence": "QVQLVESGGGLVQAGGSLRLSCAASGFIFRSNAMGWYRQAPGKERELVAAISGRGCSTYYADSVKGRFTISRDNAKNTVYLQMNSLKPVDTAVYYCAKSTVWVLYGYWGQGTQVTVSS", "polyreactivity (PSR sort gate)": "high polyreactivity"}
{"sequence": "QVQLVESGGGLVQAGGSLRLSCAASGNTLRYNVMGWYRQAPGKERELDAAISGGGSTSYADSVKGRFTISRDNAKNTVYLQMNSLKPEDTAVYYCAKRSFVGGRGRDSDYWGQGSQVTVSS", "polyreactivity (PSR sort gate)": "low polyreactivity"}
{"sequence": "QVQLVESGGGLVQAGGSLRLSCAASGLTFYKNAMGWYRQAPGKEKELVAAISDSGGSTYYADSVKGRFTISRDNAKNTVYLQMNSLKPEDTAVCYCNARRRVYYKGFDYWGQGTQVTVSS", "polyreactivity (PSR sort gate)": "high polyreactivity"}
{"sequence": "QVQLVESGGGLVQAGGSLRLSCAASGSTFFLYAMGWYIQAPGKERELVAAISGSGGTTYYADSVKGRFTISRDNAKNTVYLQMNSLKPEDTAVYYCNKDYYPGSYDYWGQGTQVTVSS", "polyreactivity (PSR sort gate)": "low polyreactivity"}
{"sequence": "QVQLVESGGGLVQAGGSLRLSCAASGYIFGNYAMGCYRQAPGKERELVAAISKSGVTTYYADSVKGRFTISRDNAKNTVYLQMNSLKPEDTAVYYCNARSWRPINARYNEYDYWGQGTQVTVSS", "polyreactivity (PSR sort gate)": "low polyreactivity"}
{"sequence": "QVQLVESGGGLVQAGGSLRLSCAASGSTIPSYAMGWYRPAPGKETELVASITYSDGTTRYADSVKGRFTISRDNAKNTVYLQMNSLIPEDTAVYYCNAVYYREGMDYWGQGTQVTVSS", "polyreactivity (PSR sort gate)": "low polyreactivity"}
{"sequence": "QVQLVESGGGLVQAGGSLRLSSAASGFTFRRYAMGWYRQAPGKERELVAAITNSAGSTYYSDSVKGRFTISRDNAKNTVYLQKNSLKPEDTAVYYCVALRSAGAYDYWGQGTQVTVSS", "polyreactivity (PSR sort gate)": "low polyreactivity"}
{"sequence": "QVQLVESGGGLVQAGGSLRLSCAASGRTFGSNAMGWYRQAPGKERELVAAISRVGSTYYADSVNGRFTISRDNAMNTVYLQMNSLKPEDTAVYYCPYDYWGQGTQVTVSS", "polyreactivity (PSR sort gate)": "low polyreactivity"}
{"sequence": "QVQLVESVGGLVQAGGSLRLSCAASGSTFYTYDMGWYRQAPGKERELVAAISRRDGITYYADSVKGRFTISRDNAKNTVYLQMNILKPEYTAVYYCAAEDAYLYYDFDYWGQGTQVTVSS", "polyreactivity (PSR sort gate)": "low polyreactivity"}
{"sequence": "QVQLVESGRGLVQAGGSLRLSCAASGGTFSPYAMGWYSQGPGKDRELVASITGSGGSTYYADSVKGRFTISRGNATTTVNLQMTSLNPEDTAVYYCAAQGYWTYWPYLLRLYDYWGQGTQVTVSS", "polyreactivity (PSR sort gate)": "low polyreactivity"}
{"sequence": "QVQLQESGGGLVQAGGSLRLSCAASGSIFKVVDMGLYRQAPAKEREFVATIGEGGNTYYADSVKGRFTISRDNAKNTVYLQMNSLKTEDTAVYFYAVVLGTSYRYTYWGQGTKVTVSS", "polyreactivity (PSR sort gate)": "low polyreactivity"}
{"sequence": "QVQLQESGGGLVQAGGSLRMSCAARGTIFWQWAMGWYCQAPGKERELVASISSGGTTYHADSVKGRFTISRDNAKNTVYLQMNSLKPEDTAVYYCNAPNWSVAYVYITQEMDYWGQGTQVTVSS", "polyreactivity (PSR sort gate)": "low polyreactivity"}
{"sequence": "QVQLVESGGGLVQAGGSLRLSCAASGFTFYKNTMGWYRQAPGNERELVAAISYRGGTYYADSVKGRFTISRDNAKTTVYLQMNSLKPEDTAVYYCNARYRGKYSSYGFWGHGTQVTVSS", "polyreactivity (PSR sort gate)": "high polyreactivity"}
{"sequence": "HVQLVESGGGLVQAGGSLRLSCAASGRIFRKYAMGWYRQAPGKERELVAVITGSAGSTYYADSVKGRFTISRDNAKNTVYLQMNSLKPEDTAVYYCAKVSTSWDYGIYPFDEGYYWGQGTKVTVSS", "polyreactivity (PSR sort gate)": "low polyreactivity"}
{"sequence": "QVQLVESGGGLVQAGGSLRLSCAASGSIFRWYAMGWYRQAPGKERELVAGITRGGRTNYADSVKGRFTISRDNAKNTVYLQMNSLKPEDTAVYYCAKVSRSKQKFDYWGQGTQVTVSS", "polyreactivity (PSR sort gate)": "high polyreactivity"}
{"sequence": "QVQIVESRGGLVQAGVSLRLSCAASGRIFAKNVMGWYRQAPGKDRELVAAISRSGGSTYYADSVKGRFTISRDNAKNTVYLQMNSLKPEDTAVYYCAATPAYGRRWSRYGYWGQGTQVNVSS", "polyreactivity (PSR sort gate)": "high polyreactivity"}
